Data taken from patent US20200150041.

Tested on: SDM-25

MMP9 protease, sequence (chain, as listed by the source): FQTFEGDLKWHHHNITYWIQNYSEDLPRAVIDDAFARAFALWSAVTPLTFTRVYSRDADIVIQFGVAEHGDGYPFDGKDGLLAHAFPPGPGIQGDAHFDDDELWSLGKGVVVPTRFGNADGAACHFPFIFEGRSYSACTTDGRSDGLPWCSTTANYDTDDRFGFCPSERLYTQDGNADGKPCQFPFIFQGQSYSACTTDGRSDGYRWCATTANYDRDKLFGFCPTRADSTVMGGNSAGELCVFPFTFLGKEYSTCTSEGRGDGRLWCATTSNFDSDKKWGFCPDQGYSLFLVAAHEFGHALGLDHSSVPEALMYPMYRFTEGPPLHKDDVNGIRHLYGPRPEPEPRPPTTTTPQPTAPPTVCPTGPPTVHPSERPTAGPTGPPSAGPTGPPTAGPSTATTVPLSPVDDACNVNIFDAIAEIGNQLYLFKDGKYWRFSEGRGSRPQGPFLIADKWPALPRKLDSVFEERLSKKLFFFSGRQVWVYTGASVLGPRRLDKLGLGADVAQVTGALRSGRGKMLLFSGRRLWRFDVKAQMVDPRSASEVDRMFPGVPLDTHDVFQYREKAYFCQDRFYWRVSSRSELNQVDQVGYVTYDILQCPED

MMP9 protease
fluorescence emission spectra (630 nm excitation) before and after protease treatment; FRET loss on cleavage: After cleavage, Cy7 no longer quenches Cy5, resulting in an increase of the 670 nm Cy5 emission peak and a reduction of the Cy7 re-emission at 780 nm
